Results reported in patent US10683486B2, “Methods for producing hepatocytes” (BioLamina AB, priority 2015, dated 2020).

Legend:
Format in all cases: cell-based, human
[1] = tested on: hESC-derived hepatocytes; assay: Biliary efflux of CDFDA; conditions: 2 μM CDFDA for 30 minutes; versus the MG substrate
Procedure: To determine whether these cells were capable of biliary efflux, cells were treated with 5(6)-carboxy-2′,7′-dichlorofluorescein diacetate (CDFDA), which was metabolised to fluorescent CDF and effluxed by multidrug resistance associated protein 2 (MRP2). hESC-derived hepatocytes were incubated with 2 μM of 5(6)-carboxy-2′,7′dichlorofluorescein diacetate (CDFDA) for 30 minutes. Cultures were then washed with ice-cold PBS containing calcium and magnesium. Cells were either collected for imaging or retained for quantification of efflux. For fluorescent quantification, hepatic maturation was replaced and cells incubated at 37 degrees Celsius for 30 minutes. The efflux of CDFDA from cells into media was measured by fluorescence spectroscopy at […] using a FLUOStar Omega multi-mode microplate reader.
The results are shown in the bottom row (C) of photomicrographs.

[2] = tested on: MAN11 cells; assay: Immunostaining of ALB and CYP3A in MAN11 derived cells (Example 5); conditions: MAN11, Day 18, Cameron protocol
Procedure: (§1) MAN11 cells, another GMP grade cell line, were plated on three different substrates. The first substrate was Matrigel® (MG), and served as a control. The second substrate was coated with 5 micrograms per square centimeter (μg/cm^2) of laminin-521 (LN-521). […] The cells were then differentiated according to the Cameron protocol.
(§2) FIG. 16 is a set of 15 photomicrographs at 10× magnification, organized into three columns and five rows. […] Row A is a set of phase contrast images of morphology. The scale bars are 200 μm. Row B is a set of photomicrographs showing the immunofluorescent staining of albumin (ALB) on the three different matrices. Row C is a set of photomicrographs showing the immunofluorescent staining of cytochrome P450 3A (CYP3A). Row D is a set of photomicrographs showing the immunofluorescent staining of multidrug resistance protein 1 (MRP1). Row E is a set of photomicrographs showing immunoglobulin G control staining for sheep, mouse, and rabbit antisera. All of these photos were taken on Day 18.

[3] = tested on: MAN12 cells; assay: Immunostaining of ALB and CYP3A in MAN12 derived cells (Example 4); conditions: MAN12, Day 24 of differentiation, Cameron protocol
Procedure: as §1, with “MAN12” for “MAN11”, “a” for “another”
as §2, with “14” for “16”, “rows, taken on Day 24 of differentiation.” for “rows.”, “antisera.” for “antisera. All of these photos were taken on Day 18.”
FIG. 15 is a set of four bar graphs. The first row of two graphs show hepatocyte protein secretion for alpha fetoprotein and albumin as analyzed by ELISA on day 24 of differentiation (n=3). No significant differences were observed across the three matrices. The second row of two graphs show the metabolic function of CYP p450 activity on days 18, 20, and 24 for CYP1A2 and CYP3A activity.

[4] = tested on: MAN11 derived hepatocytes; assay: Protein secretion (ELISA) and CYP p450 activity of MAN11 derived hepatocytes; conditions: day 18, n=3, versus MG
Procedure: as §1
FIG. 17 is a set of four bar graphs. […] The second row of two graphs show the metabolic function of CYP p450 activity on day 18 for CYP1A2 and CYP3A activity. No significant differences were observed across the three matrices.
Looking at both Example 4 and Example 5, the MAN11 and MAN12 cells differentiated efficiently on all three substrates, with the majority of cells (>80%) expressing albumin and CYP3A, as detected by immunostaining.

## LN-521: substrate coated with 5 μg/cm^2 of laminin-521, the protein formed by joining α5, β2 and γ1 chains
[1]
  biliary efflux: more active biliary efflux
[2]
  ALB, percentage of positive cells and standard deviation: 89.2% ± 6.0
  CYP3A, percentage of positive cells and standard deviation: 90.8% ± 9.9
[3]
  ALB, percentage of positive cells and standard deviation: 83.3% ± 8.5
  CYP3A, percentage of positive cells and standard deviation: 81.5% ± 8.6
[4]
  Albumin secretion: signicantly increased
  alpha fetoprotein (AFP) secretion: significant reduction
[4]; listed as LN-512
  alpha fetoprotein (AFP) secretion: significantly reduced foetal protein secretion
